Assay results taken from PMC9359528, “DNA binding by the Rad9A subunit of the Rad9-Rad1-Hus1 complex”.
Changes are numbered by the printed parent chain.

Legend:
Test in all cases: EMSA; EMSA: 20 mM Tris-HCl pH 7.6, 80 mM NaCl, 1 mM DTT, 1 mM EDTA, 1.5% glycerol, 200 ng/ml poly dI/dC, 50 ug/ml BSA, 10 nM DNA; 6% native PAGE in 50 mM Tris-borate
QM1 Rad9A 1-266 = target: T1, QM1 Rad9A 1-266 (Homo sapiens, UniProt Q99638 1-266, K11A;K15A;R22A;K78A); conditions: protein: recombinant; tags: His; label: 5'-fluorescein (6-carboxyfluorescein) on HC40; blunt
T1 sequence: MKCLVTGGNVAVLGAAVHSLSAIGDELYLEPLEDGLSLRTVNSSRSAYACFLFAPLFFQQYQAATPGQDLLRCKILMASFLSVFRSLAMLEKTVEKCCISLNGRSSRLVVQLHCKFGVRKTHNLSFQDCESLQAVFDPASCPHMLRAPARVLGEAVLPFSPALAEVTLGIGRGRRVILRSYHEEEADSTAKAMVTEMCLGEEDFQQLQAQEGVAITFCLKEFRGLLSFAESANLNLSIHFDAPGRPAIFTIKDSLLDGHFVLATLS

TM Rad9A 1-266 = target: T2, TM Rad9A 1-266 (Homo sapiens, UniProt Q99638 1-266, K11A;K15A;R22A); conditions: protein: recombinant; tags: His; label: 5'-fluorescein (6-carboxyfluorescein) on HC40; blunt
T2 sequence: T1 sequence with A78K

K220A Rad9A 94-266 = target: T3, K220A Rad9A 94-266 (Homo sapiens, UniProt Q99638 94-266, K220A); conditions: protein: recombinant; tags: His; label: 5'-fluorescein (6-carboxyfluorescein) on HC40; blunt
T3 sequence: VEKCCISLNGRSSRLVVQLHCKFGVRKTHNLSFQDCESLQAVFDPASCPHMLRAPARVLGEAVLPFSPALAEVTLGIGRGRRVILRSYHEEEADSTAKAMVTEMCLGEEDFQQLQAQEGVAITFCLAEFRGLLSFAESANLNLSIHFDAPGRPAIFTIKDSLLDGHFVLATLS

LD Rad9A 94-266 = target: T4, LD Rad9A 94-266 (Homo sapiens, UniProt Q99638 94-266, del160-163); conditions: protein: recombinant; tags: His; label: 5'-fluorescein (6-carboxyfluorescein) on HC40; blunt
T4 sequence: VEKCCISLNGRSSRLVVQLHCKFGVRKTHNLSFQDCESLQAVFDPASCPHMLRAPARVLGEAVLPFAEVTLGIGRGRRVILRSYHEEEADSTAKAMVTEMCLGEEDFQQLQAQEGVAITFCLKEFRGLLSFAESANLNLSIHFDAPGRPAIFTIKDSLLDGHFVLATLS

WT Rad9A 1-266 = target: T5, WT Rad9A 1-266 (Homo sapiens, UniProt Q99638 1-266); conditions: protein: recombinant; tags: N-terminal His; label: 5'-fluorescein (6-carboxyfluorescein) on HC40; blunt
T5 sequence: T1 sequence with A11K, A15K, A22R, A78K

WT Rad9A 94-266 = target: T6, WT Rad9A 94-266 (Homo sapiens, UniProt Q99638 94-266); conditions: protein: recombinant; tags: His; label: 5'-fluorescein (6-carboxyfluorescein) on HC40; blunt
T6 sequence: T3 sequence with A127K

TM Rad9A 1-133 = target: T7, TM Rad9A 1-133 (Homo sapiens, UniProt Q99638 1-133, K11A;K15A;R22A); conditions: protein: recombinant; tags: His; label: 5'-fluorescein (6-carboxyfluorescein) on HC40; blunt
T7 sequence: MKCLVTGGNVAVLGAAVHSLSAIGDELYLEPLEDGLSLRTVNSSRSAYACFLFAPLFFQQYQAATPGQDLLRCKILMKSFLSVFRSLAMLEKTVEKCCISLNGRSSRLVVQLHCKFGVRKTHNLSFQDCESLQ

WT Rad9A 134-266 = target: T8, WT Rad9A 134-266 (Homo sapiens, UniProt Q99638 134-266); conditions: protein: recombinant; tags: N-terminal His; label: 5'-fluorescein (6-carboxyfluorescein) on HC40; blunt
T8 sequence: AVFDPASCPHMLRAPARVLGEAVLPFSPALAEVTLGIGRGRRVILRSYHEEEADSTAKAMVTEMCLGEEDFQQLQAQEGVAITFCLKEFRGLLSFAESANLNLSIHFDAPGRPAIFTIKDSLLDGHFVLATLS

R223A Rad9A 94-266 = target: T9, R223A Rad9A 94-266 (Homo sapiens, UniProt Q99638 94-266, R223A); conditions: protein: recombinant; tags: His; label: 5'-fluorescein (6-carboxyfluorescein) on HC40; blunt
T9 sequence: T3 sequence with A127K, R130A

DM Rad9A 94-266 = target: T10, DM Rad9A 94-266 (Homo sapiens, UniProt Q99638 94-266, R150A;R223A); conditions: protein: recombinant; tags: His; label: 5'-fluorescein (6-carboxyfluorescein) on HC40; blunt
T10 sequence: T3 sequence with R57A, A127K, R130A

WT Rad9A 1-133 = target: T11, WT Rad9A 1-133 (Homo sapiens, UniProt Q99638 1-133); conditions: protein: recombinant; tags: N-terminal His; label: 5'-fluorescein (6-carboxyfluorescein) on HC40; blunt
T11 sequence: T7 sequence with A11K, A15K, A22R

B1: HC40/HG40 (dsDNA)
DNA 1: CCGAGGAATTCGCCTTCTGCTCCATAGCCACTGGTTGTAG
DNA 2: CTACAACCAGTGGCTATGGAGCAGAAGGCGAATTCCTCGG
Question: Which results are given for B1?
Answer: Kd (QM1 Rad9A 1-266): 1770 ± 790 nM; Kd (TM Rad9A 1-266): 120 ± 30 nM; Kd (K220A Rad9A 94-266): 6400 ± 750 nM; Kd (LD Rad9A 94-266): 6120 ± 1270 nM; Kd (WT Rad9A 1-266): 50 ± 10 nM; Kd (WT Rad9A 94-266): 1500 ± 400 nM; Kd (TM Rad9A 1-133): 7740 ± 680 nM; Kd (WT Rad9A 134-266): 3000 ± 620 nM; Kd (R223A Rad9A 94-266): 1170 ± 690 nM; Kd (DM Rad9A 94-266): 7790 ± 880 nM; Kd (WT Rad9A 1-133): 820 ± 150 nM
